{"source": "patent US20240402174A1", "about": "(Takeda / Millennium, published 2024)", "binders": {"B1": {"name": "human mAb 1431 (antibody, V domains shown)", "VH": "QVQLVQSGGGLVQPGGSLRLSCAASGFAFSNHGMHWVRQAPGKGLEWLSYISGSTGAIHYANSVKGRFTISRDNARNSLDLQMNSLGDEDTAVYYCARDGPRPDGTGYAGPSNDYWGQGTLVSVSS", "VL": "EIVLTQSPASLSLSPGERATLSCKASRSISIYLAWYQQKPGQAPRLLIYDASYRAIGIPARFSGSGSGTDFTLTISNLEPEDFAVYYCQHRSSWPALTFGGGTKVEI", "notes": "also called A1431"}, "B2": {"name": "human mAb 1431 (antibody, V domains shown)", "VH": "B1 VH", "VL": "B1 VL", "notes": "also called A1431"}}, "key": {"[1]": {"molecular_target": "T1, GII.4/Sydney VLP (norovirus …, UniProt P54635 1-538)", "T1 construct": "also called Hu/GII.4/Sydney/NSW0514/2012/AU", "T1 chain": "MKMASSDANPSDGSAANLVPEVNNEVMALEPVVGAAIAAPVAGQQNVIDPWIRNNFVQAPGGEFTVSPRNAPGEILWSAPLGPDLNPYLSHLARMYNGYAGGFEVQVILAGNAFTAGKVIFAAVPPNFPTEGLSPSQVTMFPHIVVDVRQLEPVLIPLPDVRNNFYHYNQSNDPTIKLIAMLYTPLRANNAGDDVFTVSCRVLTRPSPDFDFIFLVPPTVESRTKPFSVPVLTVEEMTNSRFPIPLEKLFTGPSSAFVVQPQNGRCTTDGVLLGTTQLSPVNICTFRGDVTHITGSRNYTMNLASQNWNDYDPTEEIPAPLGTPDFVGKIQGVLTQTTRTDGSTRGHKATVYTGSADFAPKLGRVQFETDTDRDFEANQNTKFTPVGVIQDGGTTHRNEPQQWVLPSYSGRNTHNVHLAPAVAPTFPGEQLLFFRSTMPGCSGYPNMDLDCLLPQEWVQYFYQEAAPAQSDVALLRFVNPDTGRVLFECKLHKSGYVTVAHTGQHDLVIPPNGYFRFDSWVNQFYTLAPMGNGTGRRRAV", "assay": "PGM blockade assay, serially diluted mAb"}, "[2]": {"molecular_target": "T2, GII.4/Yerseke VLP (norovirus Hu/GII.4/Yerseke38/2006/NL, UniProt P54635 1-539)", "T2 construct": "also called Hu/GII.4/Yerseke38/2006/NL", "T2 chain": "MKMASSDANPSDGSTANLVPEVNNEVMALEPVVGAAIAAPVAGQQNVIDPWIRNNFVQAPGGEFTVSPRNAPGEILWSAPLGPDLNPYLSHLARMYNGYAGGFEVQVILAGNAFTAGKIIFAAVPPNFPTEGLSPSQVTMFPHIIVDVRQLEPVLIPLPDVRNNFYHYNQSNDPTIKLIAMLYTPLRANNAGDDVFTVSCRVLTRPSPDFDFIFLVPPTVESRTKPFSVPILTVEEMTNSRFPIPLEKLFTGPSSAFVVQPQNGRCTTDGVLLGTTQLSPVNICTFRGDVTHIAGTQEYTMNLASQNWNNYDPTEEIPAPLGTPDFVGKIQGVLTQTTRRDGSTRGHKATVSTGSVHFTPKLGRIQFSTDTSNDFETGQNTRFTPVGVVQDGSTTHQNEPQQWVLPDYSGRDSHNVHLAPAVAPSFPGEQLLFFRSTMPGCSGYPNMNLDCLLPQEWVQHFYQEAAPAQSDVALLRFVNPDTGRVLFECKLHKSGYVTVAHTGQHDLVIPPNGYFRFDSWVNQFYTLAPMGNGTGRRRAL", "assay": "PGM blockade assay, serially diluted mAb"}, "[3]": {"molecular_target": "T3, GII.4/Houston VLP (norovirus …, UniProt P54635 1-539)", "T3 construct": "also called Hu/GII.4/Houston/TCH186/2002/US", "T3 chain": "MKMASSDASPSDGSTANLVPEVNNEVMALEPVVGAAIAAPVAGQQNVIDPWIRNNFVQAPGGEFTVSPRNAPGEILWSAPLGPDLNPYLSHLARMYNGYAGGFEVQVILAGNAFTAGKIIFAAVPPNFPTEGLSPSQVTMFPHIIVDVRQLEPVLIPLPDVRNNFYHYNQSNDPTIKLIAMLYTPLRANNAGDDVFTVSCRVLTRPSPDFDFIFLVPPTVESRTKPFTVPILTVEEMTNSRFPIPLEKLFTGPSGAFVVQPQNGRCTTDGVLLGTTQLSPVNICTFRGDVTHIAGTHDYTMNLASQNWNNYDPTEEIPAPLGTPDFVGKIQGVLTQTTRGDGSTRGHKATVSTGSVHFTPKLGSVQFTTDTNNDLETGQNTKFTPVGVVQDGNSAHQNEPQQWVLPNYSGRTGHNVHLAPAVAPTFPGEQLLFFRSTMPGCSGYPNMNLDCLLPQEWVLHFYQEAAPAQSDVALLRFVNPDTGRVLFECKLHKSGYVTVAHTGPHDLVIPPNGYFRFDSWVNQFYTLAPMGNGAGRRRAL", "assay": "PGM blockade assay, serially diluted mAb"}, "[4]": {"molecular_target": "T4, GI.2 VLP (norovirus Hu/GI.2/Jingzhou/2013401/CHN, UniProt Q04542 1-546)", "T4 construct": "also called GI.2 Jingzhou", "T4 chain": "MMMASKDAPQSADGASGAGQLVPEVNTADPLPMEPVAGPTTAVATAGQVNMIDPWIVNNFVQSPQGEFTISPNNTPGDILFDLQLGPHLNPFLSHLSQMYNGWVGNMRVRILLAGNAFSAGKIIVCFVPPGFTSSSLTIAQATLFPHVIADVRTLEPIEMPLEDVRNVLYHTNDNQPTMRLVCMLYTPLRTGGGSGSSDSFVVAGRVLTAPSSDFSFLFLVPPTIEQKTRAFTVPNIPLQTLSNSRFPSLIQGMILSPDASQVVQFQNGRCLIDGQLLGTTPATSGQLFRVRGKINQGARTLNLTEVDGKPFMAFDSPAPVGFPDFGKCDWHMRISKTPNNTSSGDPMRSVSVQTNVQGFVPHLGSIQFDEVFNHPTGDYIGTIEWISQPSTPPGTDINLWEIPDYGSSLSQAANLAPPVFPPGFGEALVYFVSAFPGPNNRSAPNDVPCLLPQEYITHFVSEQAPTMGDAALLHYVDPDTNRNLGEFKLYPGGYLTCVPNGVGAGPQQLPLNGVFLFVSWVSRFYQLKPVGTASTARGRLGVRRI", "assay": "multiplex microsphere immunoassay"}, "[5]": {"molecular_target": "T5, GI.7 VLP (norovirus Hu/GI.7/Providence191/2010/USA)", "T5 construct": "also called GI.7 Providence", "T5 chain": "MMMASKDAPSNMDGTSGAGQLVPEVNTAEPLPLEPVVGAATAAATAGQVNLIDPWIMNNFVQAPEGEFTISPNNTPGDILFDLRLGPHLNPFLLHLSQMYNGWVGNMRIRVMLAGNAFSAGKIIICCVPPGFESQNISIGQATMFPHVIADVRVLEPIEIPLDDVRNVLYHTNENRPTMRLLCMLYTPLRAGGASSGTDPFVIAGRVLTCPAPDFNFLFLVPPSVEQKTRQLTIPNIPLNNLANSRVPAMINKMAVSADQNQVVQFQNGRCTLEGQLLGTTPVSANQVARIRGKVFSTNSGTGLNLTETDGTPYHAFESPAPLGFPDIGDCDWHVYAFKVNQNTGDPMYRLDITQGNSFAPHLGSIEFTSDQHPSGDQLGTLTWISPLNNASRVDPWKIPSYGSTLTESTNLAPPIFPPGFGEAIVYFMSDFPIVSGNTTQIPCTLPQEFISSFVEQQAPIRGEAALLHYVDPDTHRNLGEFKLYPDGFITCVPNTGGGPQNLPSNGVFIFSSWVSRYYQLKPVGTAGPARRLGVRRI", "assay": "multiplex microsphere immunoassay"}}, "data": [{"binder": "B1", "values": [{"measurement": "blocking titer", "setting": "[1]", "result": 7280}, {"measurement": "blocking titer", "setting": "[2]", "result": 4850}, {"measurement": "blocking titer", "setting": "[3]", "result": 12100}]}, {"binder": "B2", "values": [{"measurement": "binding result", "setting": "[4]", "result": "no binding"}, {"measurement": "binding result", "setting": "[5]", "result": "no binding"}]}]}
